Test results from publication PMC9245003.

Legend:
Test in all cases: SEC-MALS
[1] = biological target: gH/gL 7-mer nanoparticle (gH-C153T-IMX313 / gL) (Epstein-Barr virus | Gallus gallus) (UniProt P03231)
[2] = biological target: gH/gL 24-mer nanoparticle (gH-ferritin / gL) (Epstein-Barr virus | Helicobacter pylori) (UniProt P03231)
[3] = biological target: gH/gL 60-mer nanoparticle (gH-C153T-I3 / gL) (Epstein-Barr virus) (UniProt P03231)

Substance: gH/gL 7-mer nanoparticle (gH-C153T-IMX313 / gL) (from UniProt P03231;P03212) (complex)
- stoichiometry N [1]: 7

Substance: gH/gL 24-mer nanoparticle (gH-ferritin / gL) (from UniProt P03231;P03212) (complex)
- stoichiometry N [2]: 24

Substance: gH/gL 60-mer nanoparticle (gH-C153T-I3 / gL) (from UniProt P03231;P03212) (complex)
- stoichiometry N [3]: 60
